# Test results as given in article PMC11417379.
# System: pTERF1 (Clostridia bacterium (ruminant gut metagenome))
# Assay: BLI
# Settings: BLI: PBS, 0.02% Tween, pH 7.4, 25 C, 1:1 global fit; EMSA: 40 nM probe, room temperature 30 min, 6% native PAGE, buffer not stated
substance,measurement,value
pTERF1 motif probe,Kd,1.87 nM
